In publication PMC2645691:

Biological target: FLAG-tagged MAGI-1L (C. elegans)
Test: co-IP; COS-7 cells cotransfected with FLAG- and GST-tagged proteins; lysis in modified RIPA (50 mM Tris-HCl pH 7.4, 125 mM NaCl, 0.25% NP-40); anti-FLAG beads; blots with anti-FLAG and anti-GST, films quantified against input

| percent coimmunoprecipitated [%] | Binder |
| --- | --- |
| 10 | GST fused to the GLR-2 cytosolic domain (GST::GLR-2) (domain or fragment) VEFLFRKNKENREKERNRMRSSRPLKPGILASCERAKQKQLQNRRTKSEEVSTPRSTLF |
| 0 to 2 | GST fused to the GLR-2 cytosolic domain with a mutated PDZ recognition motif (GST::GLR-2AAA) (domain or fragment) VEFLFRKNKENREKERNRMRSSRPLKPGILASCERAKQKQLQNRRTKSEEVSTPRSAAA |
